Measured values reported in patent publication US20070184519A1 (published 2007).

Assays:
[1] = biological target: DRB1*1101 (human, UniProt P01903 26-216, limits assumed); assay: inhibition of 125I-labelled probe peptide binding to purified HLA class II
[2] = biological target: HLA-DR DRB1*0101 (human); assay: competition with 125I probe, purified MHC II
[3] = biological target: HLA-DR DRB4*0101 (human); assay: competition with 125I probe, purified MHC II
[4] = biological target: HLA-DR DRB5*0101 (human); assay: competition with 125I probe, purified MHC II
[5] = biological target: HLA-DR DRB1*0401 (human); assay: competition with 125I probe, purified MHC II
[6] = biological target: DRB1*0301 (human, UniProt P01903 26-216, limits assumed); assay: competition vs 125I probe peptide, purified MHC II
[7] = biological target: DRB1*0802 (human, UniProt P01903 26-216, limits assumed); assay: competition vs 125I probe peptide, purified MHC II
[8] = biological target: DRB1*0101 (human, UniProt P01903 26-216, limits assumed); assay: competition vs 125I probe peptide, purified MHC II
[9] = biological target: DRB4*0101 (human, UniProt P01903 26-216, limits assumed); assay: competition vs 125I probe peptide, purified MHC II
[10] = biological target: DRB1*0401 (human, UniProt P01903 26-216, limits assumed); assay: competition vs 125I probe peptide, purified MHC II
[11] = biological target: DRB1*0405 (human, UniProt P01903 26-216, limits assumed); assay: competition vs 125I probe peptide, purified MHC II
[12] = biological target: DRB1*0701 (human, UniProt P01903 26-216, limits assumed); assay: competition vs 125I probe peptide, purified MHC II
[13] = biological target: DRB1*0901 (human, UniProt P01903 26-216, limits assumed); assay: competition vs 125I probe peptide, purified MHC II
[14] = biological target: DRB1*1302 (human, UniProt P01903 26-216, limits assumed); assay: competition vs 125I probe peptide, purified MHC II
[15] = biological target: DRB1*0404 (human, UniProt P01903 26-216, limits assumed); assay: competition vs 125I probe peptide, purified MHC II
[16] = biological target: DRB5*0101 (human, UniProt P01903 26-216, limits assumed); assay: competition vs 125I probe peptide, purified MHC II
[17] = biological target: DRB1*1101 (human, UniProt P01903 26-216, limits assumed); assay: competition vs 125I probe peptide, purified MHC II
[18] = biological target: HLA-DR DRB3*0101 (human); assay: competition with 125I probe, purified MHC II
[19] = biological target: HLA-DR DRB1*0802 (human); assay: competition with 125I probe, purified MHC II
[20] = biological target: T1, HLA-DR DRB1*0405 (human); assay: competition with 125I probe, purified MHC II
T1 chain 1: not shown
T1 chain 2: not shown

[21] = biological target: HLA-DR molecule DRB1*1101 (DR5w11) (human); assay: inhibition of radiolabelled probe peptide binding to purified MHC class II
[22] = biological target: HLA-DR molecule DRB5*0101 (DR2w2a) (human); assay: as above
[23] = biological target: DRB1*0901 (human, UniProt P01903 26-216, limits assumed); assay: inhibition of 125I-labelled probe peptide binding to purified HLA class II
[24] = biological target: DRB1*1302 (human, UniProt P01903 26-216, limits assumed); assay: as above
[25] = biological target: HLA-DR molecule DRB1*0901 (DR9) (human); assay: inhibition of radiolabelled probe peptide binding to purified MHC class II
[26] = biological target: HLA-DR molecule DRB1*1302 (DR6w19) (human); assay: as above
[27] = biological target: HLA-DR molecule DRB4*0101 (DRw53) (human); assay: as above
[28] = biological target: HLA-DR molecule DRB1*0404 (human); assay: competition vs 125I probe, purified HLA
[29] = biological target: HLA-DR molecule DRB1*1101 (human); assay: competition vs 125I probe, purified HLA
[30] = biological target: HLA-DR molecule DRB1*1302 (human); assay: competition vs 125I probe, purified HLA
[31] = biological target: HLA-DR molecule DRB4*0101 (human); assay: competition vs 125I probe, purified HLA
[32] = biological target: HLA-DR molecule DRB5*0101 (human); assay: competition vs 125I probe, purified HLA
[33] = biological target: HLA-DR molecule DRB1*0405 (human); assay: competition vs 125I probe, purified HLA
[34] = biological target: HLA-DR molecule DRB1*0802 (human); assay: competition vs 125I probe, purified HLA
[35] = biological target: HLA-DR molecule DRB1*0101 (human); assay: competition vs 125I probe, purified HLA
[36] = biological target: HLA-DR molecule DRB1*0901 (human); assay: competition vs 125I probe, purified HLA
[37] = biological target: HLA-DR molecule DRB1*0401 (human); assay: competition vs 125I probe, purified HLA
[38] = biological target: HLA-DR molecule DRB1*0701 (human); assay: competition vs 125I probe, purified HLA
[39] = biological target: HLA-DR molecule DRB1*0301 (human); assay: competition vs 125I probe, purified HLA

For DTFRKLFRVYSNFGR [DTFRKLFRVYSNFGR, listing 1 of 2 here], the IC50 [1] was 2.8 nM.

With YLDPLIRGLLARPAKLQV [NP7 (TPO Y535-551)] the IC50 [2] was 1.6 nM, the IC50 [3] was 341 nM and the IC50 [4] was 476 nM. The IC50 [5] was 687 nM.

DTFRKLDRVYSNFLR was tested, and the IC50 [6] was 2810 nM and the IC50 [7] was 87 nM.

With DTPRKLFRVYSNFLR the IC50 [8] was 13 nM, the IC50 [9] was 418 nM and the IC50 [10] was 40 nM. The IC50 [11] was 6.9 nM, the IC50 [12] was 87 nM and the IC50 [13] was 28 nM.

With DTKRKLFRVYSNFLR the IC50 [8] was 13 nM, the IC50 [14] was 4.9 nM and the IC50 [9] was 738 nM. The IC50 [6] was 6490 nM.

Work on DTFRKLFRVYSNFGR [DTFRKLFRVYSNFGR, listing 2 of 2 here] yielded an IC50 [10] of 50 nM.

For DTFRKLFRVYSNDLR [DTFRKLFRVYSNDLR, listing 1 of 2 here], the IC50 [15] was 812 nM, the IC50 [11] was 487 nM and the IC50 [12] was 817 nM.

DTFRKQFRVYSNFLR showed an IC50 [16] of 4.9 nM, an IC50 [15] of 270 nM and an IC50 [12] of 3000 nM. It also gave an IC50 [7] of 81 nM.

With DTGRKLFRVYSNFLR the IC50 [14] was 7.5 nM, the IC50 [10] was 46 nM and the IC50 [15] was 175 nM. The IC50 [12] was 312 nM and the IC50 [7] was 53 nM.

Work on DTFRKNFRVYSNFLR yielded an IC50 [8] of 62 nM, an IC50 [10] of 91 nM and an IC50 [15] of 922 nM. The IC50 [17] was 5 nM.

DTPYLDITYHFVMQRLPL [Torp. Ach Rec. 195-212] showed an IC50 [2] of 385 nM, an IC50 [18] of 800 nM and an IC50 [3] of 261 nM. For the same binder, the IC50 [5] was 160 nM and the IC50 [19] was 555 nM.

With PLGFFPDHQLDPAFGANSNNPDWDFNP (modifications not checked) [HBV Pre S1 21-47] the IC50 [20] was 31 nM.

GLRSLTTRLRALGAQ [EPO 101 analog peptide GLRSLTTRLRALGAQ (SEQ ID NO: 192)] gave an IC50 [21] of 0.79 nM and an IC50 [22] of 13 nM.

For DTFRKLFRVYSNDLR [DTFRKLFRVYSNDLR, listing 2 of 2 here], the IC50 [23] was 1640 nM, the IC50 [1] was 3.6 nM and the IC50 [24] was 66 nM.

GLRSLTTLLDALGAQ [EPO 101 analog peptide GLRSLTTLLDALGAQ (SEQ ID NO: 193)] showed an IC50 [25] of 277 nM and an IC50 [26] of 953 nM.

GLRSLTTLLGALGAQ [EPO 101 analog peptide GLRSLTTLLGALGAQ (SEQ ID NO: 194)] was tested, and the IC50 [21] was 2.6 nM, the IC50 [26] was 858 nM and the IC50 [27] was 13 nM. The IC50 [22] was 294 nM.

Work on GLRSLGTLLRALGAQ [EPO 101 analog GLRSLGTLLRALGAQ] yielded an IC50 [28] of 13 nM, an IC50 [29] of 1.4 nM and an IC50 [30] of 739 nM. For the same binder, the IC50 [31] was 473 nM and the IC50 [32] was 13 nM.

With GLRSLTTLPRALGAQ [EPO 101 analog GLRSLTTLPRALGAQ] the IC50 [28] was 13 nM, the IC50 [33] was 524 nM and the IC50 [34] was 7.3 nM. The IC50 [29] was 0.62 nM, the IC50 [31] was 112 nM and the IC50 [32] was 2.8 nM.

GLRSLTTLLGALGAQ [EPO 101 analog GLRSLTTLLGALGAQ] gave an IC50 [35] of 1.3 nM.

With GLRSLTTLSRALGAQ [EPO 101 analog GLRSLTTLSRALGAQ] the IC50 [28] was 13 nM, the IC50 [33] was 719 nM and the IC50 [36] was 2230 nM. For the same binder, the IC50 [29] was 1.4 nM and the IC50 [30] was 440 nM.

GLRSLTTLTRALGAQ [EPO 101 analog GLRSLTTLTRALGAQ] showed an IC50 [37] of 394 nM, an IC50 [29] of 3 nM and an IC50 [32] of 13 nM.

GLRSLTTLNRALGAQ [EPO 101 analog GLRSLTTLNRALGAQ] gave an IC50 [37] of 28 nM, an IC50 [36] of 337 nM and an IC50 [29] of 0.97 nM. It also gave an IC50 [31] of 167 nM and an IC50 [32] of 0.89 nM.

GLRSLTTRLRALGAQ [EPO 101 analog GLRSLTTRLRALGAQ] showed an IC50 [35] of 2.4 nM, an IC50 [37] of 211 nM and an IC50 [38] of 4370 nM.

GLRSLTTLLDALGAQ [EPO 101 analog GLRSLTTLLDALGAQ] was tested, and the IC50 [28] was 9.3 nM and the IC50 [34] was 240 nM.

With GLRSLTTLARALGAQ [EPO 101 analog GLRSLTTLARALGAQ] the IC50 [39] was 234 nM, the IC50 [28] was 13 nM and the IC50 [34] was 7.1 nM. The IC50 [29] was 0.93 nM and the IC50 [30] was 610 nM.
